Results: patent US20150031601A1

Target: serum proteins
Test: 90% serum, 30 kDa ultrafiltration, HPLC

First: GFCWYVCSYRNGVRVCYRRCN [SEQ ID NO: 24]
Second: GFCWRACVYRNGVRACYRRCN [SEQ ID NO: 319]
The Protein binding (%) of the first is higher: 85% for the first, 40% for the second.

First: GFCWYACVYRNGKRACYRRCN [SEQ ID NO: 340]
Second: RFCWNVCVYRNGVRVCHRHCN [SEQ ID NO: 359]
The Protein binding (%) of the first is higher: 98% for the first, 80% for the second.

First: GFCARVCAKRNGVRVCYRRCN [SEQ ID NO: 363]
Second: GFCWYVCVYRNGVRVCHRRCN [SEQ ID NO: 46]
The Protein binding (%) of the first is lower: 80% for the first, 88% for the second.

Going from GFCFYVCVYRNGVRVCRRRCN [SEQ ID NO: 56] to GFCWNVCVYRNGVRVCHRRCN [NZ17074 (the antimicrobial peptide of SEQ ID NO: 70)], the Protein binding (%) falls from 94% to 79%.

Going from GFCWYVCVYRNGVRTCYRRCN [SEQ ID NO: 45] to GFCWKVCVYRNGVRVCSRRCN [SEQ ID NO: 68], the Protein binding (%) falls from 98% to 87%.

Going from GFCWRVCVRRNGVRVCHRRCN [SEQ ID NO: 335] to GFCSYVCVYRNGVRVCYRRCN [SEQ ID NO: 7], the Protein binding (%) falls from 95% to 68%.

Compared with GFCWYVCYYRNGVRVCYRRCN [SEQ ID NO: 25], GFCWRVCVYRNGVRVCHRRCN [SEQ ID NO: 76] is lower in Protein binding (%): 98% for the first, 92% for the second.

Going from GFCWYVCHYRNGVRVCYRRCN [SEQ ID NO: 23] to GFCWRACVYRNGVRSCYRRCN [SEQ ID NO: 320], the Protein binding (%) falls from 98% to 88%.

Going from GFCWHVCVYKNGKRSCYRRCN [SEQ ID NO: 390] to GFCWHVCARRNGARVCYRRCN [SEQ ID NO: 394], the Protein binding (%) falls from 87% to 80%.

Compared with GFCWYACVYRNGKRVCYRRCN [SEQ ID NO: 80], GFCWRVCASRNGLRVCYRRCN [SEQ ID NO: 435] is lower in Protein binding (%): 96% for the first, 85% for the second.

Compared with GFCAHVCVKRNGARVCYRRCN [SEQ ID NO: 362], GFCWRVCHYRNGVRVCYRRCN [SEQ ID NO: 74] is higher in Protein binding (%): 76% for the first, 99% for the second.

First: GFCWYVCVYRNGVRVCYRRCS [SEQ ID NO: 53]
Second: GFCWKVCARRNGARSCYRRCN [SEQ ID NO: 504]
The Protein binding (%) of the first is higher: 99% for the first, 95% for the second.

Going from GFCWRVCVYSNGKRSCHRRCN [SEQ ID NO: 509] to GFCWYVCVRRNGVRVCYRRCN [SEQ ID NO: 28], the Protein binding (%) rises from 87% to 92%.

Compared with GFCWYVCAYRNGVRVCYRRCN [SEQ ID NO: 21], GFCWYVCVYRNGVRVCYRRCN [antimicrobial peptide of SEQ ID NO: 2 (the parent antimicrobial peptide)] is higher in Protein binding (%): 98.5% for the first, 99.5% for the second.

First: GFCWRVCHYSNGKRVCYRRCN [SEQ ID NO: 439]
Second: GFCWYVCVYRNGPRVCYRRCN [SEQ ID NO: 33]
The Protein binding (%) of the first is lower: 92% for the first, 99% for the second.

Going from GFCWYVCVYRNGVRNCYRRCN [SEQ ID NO: 41] to GFCWRVCAYKNGKRSCYRRCN [SEQ ID NO: 523], the Protein binding (%) falls from 97% to 90%.

First: GFCWNACARRNGVRVCYRRCN [SEQ ID NO: 407]
Second: GFCWRACAYRNGKRVCYRRCN [SEQ ID NO: 417]
The Protein binding (%) of the first is lower: 88% for the first, 95% for the second.

Going from GFCWRVCVYRNGVRSCHRRCN [SEQ ID NO: 316] to GFCWYVCVYRNGVRVCKRRCN [SEQ ID NO: 47], the Protein binding (%) falls from 90% to 89%.

First: GFCWRVCSYRNGVRKCYRRCN [SEQ ID NO: 331]
Second: GFCWYVCVYRNGVRVCNRRCN [SEQ ID NO: 48]
The Protein binding (%) of the first is higher: 95% for the first, 68% for the second.

First: GFCWNVCAYRNGKRACYRRCN [SEQ ID NO: 411]
Second: GFCWRVCHYRNSVRVCYRRCN [SEQ ID NO: 327]
The Protein binding (%) of the first is lower: 86% for the first, 98% for the second.

Going from GFCWRACVYRNGVRVCYRRCN [SEQ ID NO: 72] to GFCFRVCVKRNGVRKCYRRCN [SEQ ID NO: 381], the Protein binding (%) rises from 97% to 98%.

Compared with GFCFRSCVRRNGVRVCYRRCN [SEQ ID NO: 377], GFCWYVCVKRNGVRSCYRRCN [SEQ ID NO: 87] is higher in Protein binding (%): 65% for the first, 93% for the second.

Going from GACWYVCVYRNGVRVCYRRCN [SEQ ID NO: 3] to GFCWYVCVYRNGVRSCYRRCN [SEQ ID NO: 44], the Protein binding (%) falls from 86% to 85%.

First: GFCWHVCSKRNGLRVCYRRCN [SEQ ID NO: 396]
Second: GFCGRVCVYRNGKRACYRRCN [SEQ ID NO: 386]
The Protein binding (%) of the first is higher: 92% for the first, 81% for the second.

Going from GFCWYVCVYRNGGRVCYRRCN [SEQ ID NO: 30] to GFCWRVCAYSNGKRVCYRRCN [SEQ ID NO: 425], the Protein binding (%) falls from 99% to 69%.

Compared with GFCWYVCVYRNGSRVCYRRCN [SEQ ID NO: 36], GFCWYVCVYRNGVRHCYRRCN [SEQ ID NO: 39] is higher in Protein binding (%): 60% for the first, 98% for the second.

Compared with GFCWYVCVKRNGARKCHRRCN [SEQ ID NO: 454], GFCWYVCVYRNGVRGCYRRCN [SEQ ID NO: 38] is higher in Protein binding (%): 90% for the first, 93% for the second.

First: GFCGRVCVYRNGVRVCYRRCN [SEQ ID NO: 61]
Second: GFCWYVCVYRNGARVCYRRCN [SEQ ID NO: 29]
The Protein binding (%) of the first is lower: 72% for the first, 99% for the second.

First: GFCWYVCVYRNGVRQCYRRCN [SEQ ID NO: 42]
Second: GFCWRACAYRNGVRACYRRCN [SEQ ID NO: 418]
The Protein binding (%) of the first is higher: 96% for the first, 92% for the second.

Going from GFCGRVCVYKNGKRACYRRCN [SEQ ID NO: 493] to GFCWYVCVYRNGVRVCYRRCT [SEQ ID NO: 54], the Protein binding (%) rises from 77% to 99%.

Going from GFCAYVCVYRNGVRVCYRRCN [SEQ ID NO: 4] to GFCGHVCVYRNGVRVCYRRCN [SEQ ID NO: 60], the Protein binding (%) falls from 89% to 64%.

First: GFCWYVCARRNGLRSCYRRCN [SEQ ID NO: 453]
Second: GFCWYACAYRNGVRACYRRCN [SEQ ID NO: 343]
The Protein binding (%) of the first is higher: 92% for the first, 74% for the second.

Going from GFCWYACAKRNGLRVCYRRCN [SEQ ID NO: 450] to GFCWYVCVYKNGVRVCHRRCN [SEQ ID NO: 89], the Protein binding (%) falls from 98% to 90%.

With GFCWYTCVKRNGLRVCYRRCN [SEQ ID NO: 346] the Protein binding (%) was 86%.
